Laboratory results taken from patent US20230183289A1 (ANPEP, published 2023).

These binders were tested against elastase (type I: derived from porcine pancreas, Sigma Aldrich) (porcine, UniProt P00772 27-266) (assay: cell-based or functional assay).
Sequence of elastase (type I: derived from porcine pancreas, Sigma Aldrich) (P00772 27-266 limits assumed): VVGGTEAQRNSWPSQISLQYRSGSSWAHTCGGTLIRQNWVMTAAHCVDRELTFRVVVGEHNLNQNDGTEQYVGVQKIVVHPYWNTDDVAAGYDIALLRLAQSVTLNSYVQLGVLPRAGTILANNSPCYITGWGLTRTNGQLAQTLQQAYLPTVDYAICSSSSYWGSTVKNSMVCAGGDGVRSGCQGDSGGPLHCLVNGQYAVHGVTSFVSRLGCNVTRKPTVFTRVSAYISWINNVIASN

| Binder | Elastase Inhibition Rate (%) |
| --- | --- |
| GQVS [Sample 10 tetrapeptide GQVS] | 33.9% |
| PPVD [Sample 4 tetrapeptide PPVD] | 72.5% |
| SSGG [Sample 17 tetrapeptide SSGG] | 77% |
| KHLE [Sample 28 tetrapeptide KHLE] | 79.3% |
| GQLE [Sample 23 tetrapeptide GQLE] | 73.2% |
| DCVK [Sample 5 tetrapeptide DCVK] | 118% |
| LELP [Sample 26 tetrapeptide LELP] | 78.2% |
| YLEQ [Sample 36 tetrapeptide YLEQ] | 72.3% |
| PTPQ [Sample 3 tetrapeptide PTPQ] | 69.3% |
| GQLK [Sample 27 tetrapeptide GQLK] | 56% |
| VLLP [Sample 39 tetrapeptide VLLP] | 60.7% |
| GYVS [Sample 11 tetrapeptide GYVS] | 78.5% |
| SQQV [Sample 12 tetrapeptide SQQV] | 49.3% |
| CAPQ [Sample 14 tetrapeptide CAPQ] | 77.2% |
| CFSS [Sample 21 tetrapeptide CFSS] | 47.4% |
| VKTS [Sample 6 tetrapeptide VKTS] | 66.3% |
| EHQE [Sample 29 tetrapeptide EHQE] | 66.3% |
| TKGE [Sample 38 tetrapeptide TKGE] | 59.3% |
| QLKY [Sample 35 tetrapeptide QLKY] | 60.5% |
| QKKQ [Sample 2 tetrapeptide QKKQ] | 88.7% |

| Binder | Elastase Inhibition Rate (%) |
| --- | --- |
| VEHQ [Sample 40 tetrapeptide VEHQ] | 55.7% |
| QPSY [Sample 15 tetrapeptide QPSY] | 63.5% |
| MSYQ [Sample 1 tetrapeptide MSYQ] | 79.4% |
| KTSG [Sample 7 tetrapeptide KTSG] | 44.5% |
| GSSG [Sample 19 tetrapeptide GSSG] | 58.3% |
| GGSG [Sample 18 tetrapeptide GGSG] | 104% |
| SGGS [Sample 8 tetrapeptide SGGS] | 49.6% |
| EVQW [Sample 42 tetrapeptide EVQW] | 49.5% |
| ELPE [Sample 24 tetrapeptide ELPE] | 90.5% |
| FSSG [Sample 22 tetrapeptide FSSG] | 69.1% |
| GQDP [Sample 34 tetrapeptide GQDP] | 34.5% |
| QMGQ [Sample 33 tetrapeptide QMGQ] | 55.6% |
| QQKQ [Sample 41 tetrapeptide QQKQ] | 72.3% |
| GCFS [Sample 20 tetrapeptide GCFS] | 55.2% |
| PEEQ [Sample 32 tetrapeptide PEEQ] | 64% |
| EGQL [Sample 30 tetrapeptide EGQL] | 69.7% |
| LEVP [Sample 31 tetrapeptide LEVP] | 70.6% |
| GSGY [Sample 9 tetrapeptide GSGY] | 56.3% |
| TQTS [Sample 13 tetrapeptide TQTS] | 59% |
| YGGG [Sample 16 tetrapeptide YGGG] | 67.1% |
